Kd data for 2 molecules are collected here from patent CN117368459A (INST MILITARY MEDICINE ACADEMY MILITARY SCIENCES PLA, dated 2024).

The target in this test is 新冠病毒S1-RBD蛋白 (新冠病毒 (SARS-CoV-2), UniProt P0DTC2 319-541). In words: […] (BLI), […], antibody 118 nM to 1.88 nM, 1:1 model.

As usually defined, the Kd is the free concentration of one partner at which half of the binding sites on the other are occupied at equilibrium, for simple one-to-one binding. A higher Kd goes with weaker binding.

B1: Nluc-chC25抗体 (antibody, human IgG1)
light: NIVLTQSPVSLAVSLGQRATISCRASESVDSYGNSFMHWYQQKPGQPPKLLIYIASNLESGVPARFSGGGSRTDFTLTIDPVEADDAATYYCQQNYEDPWTFGGGTKLEIKRADAAPSVFIFPPSDEQLKSGTASVVCLLNNFYPREAKVQWKVDNALQSGNSQESVTEQDSKDSTYSLSSTLTLSKADYEKHKVYACEVTHQGLSSPVTKSFNRGEC
heavy: not shown
notes: also called Nluc-chC25重组抗体; Nluc标记重组抗体
B1 came in with a Kd of 15.1 pM.

B2: HRP-chC25抗体 (antibody, human IgG1)
light: B1 light
heavy: not shown
notes: also called HRP标记重组抗体; HRP-2C5
The molecule B2 showed a Kd of 37.5 pM.
